# Results from the supplement of paper PMC7877785.
# ± gives the uncertainty stated by the source.
# Test: self-splicing fitness, log relative to wild type (ln ratio); higher = more splicing; Tetrahymena group I intron in knt gene, E. coli kanamycin selection, DiMSum; sequences stand for … in CUCUCU…GGAGGGAAAAGUUAUCAGGCAUGCACCUGGUAGCUAGUCUUUAAACCAAUAGAUUGCAUCGGUUUAAAAGGCAAGACCGUCAAAUUGCGGGAAAGGGGUCAACAGCCGUUCAGUACCAAGUCUCAGGGGAAACUUUGAGAUGGCCUUGCAAAGGGUAUGGUAAUAAGCUGACGGACAUGGUCCUAACCACGCAGCCAAGUCCUAAGUCAACAGAUCUUCUGUUGAUAUGGAUGCAGUUCACAGACUAAAUGUCGGUCGGGGAAGAUGUAUUCUUCUCAUAAGAUAUAGUCGGACCUCUCCUUAAUGGGAGCUAGCGGAUGAAGUGAUGCAACACUGGAGCCGCUGGGAACUAAUUUGUAUGCGAAAGUAUAUUGAUUAGUUUUGGAGUACUCGUGGUCG
# In short: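 Fitness was computed with DiMSum as the error-weighted combination of replicate fold changes, kanamycin versus none, each normalised to wild type. The library randomised all eight intron nucleotides of the P1ex region, with the intron placed in the knt kanamycin-resistance gene on pET-22b(+) in E. coli BL21(DE3). Six replicate transformations were grown overnight at 37°C or 30°C on LB agar with or without 25 μg/mL kanamycin, plus 100 μg/mL carbenicillin, 50 μM IPTG and 0.2% rhamnose. Pooled colonies were amplicon-sequenced on an Illumina HiSeq 2500.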
Sequence,self-splicing fitness (ln) (30 °C),self-splicing fitness (ln) (37 °C)
AUACAGCAAUAUUACGUUCA,-0.878 ± 0.07,-0.304 ± 0.071
GCACAGCAAUAUUACGAGCC,-3.2 ± 0.28,-2.01 ± 0.23
CGCCAGCAAUAUUACGUCAA,-2.51 ± 0.17,-2.32 ± 0.17
UUUAAGCAAUAUUACGUUCA,-1.08 ± 0.11,-0.403 ± 0.12
AUUUAGCAAUAUUACGCCAC,-3.24 ± 0.48,-1.36 ± 0.35
GGGAAGCAAUAUUACGGCGU,-0.0838 ± 0.13,-0.241 ± 0.14
CCAGAGCAAUAUUACGUCAG,-2.58 ± 0.12,-1.6 ± 0.15
ACAUAGCAAUAUUACGAUAA,-2.16 ± 0.13,-1.72 ± 0.17
CGAAAGCAAUAUUACGUUGG,-1.66 ± 0.08,-0.961 ± 0.097
ACGCAGCAAUAUUACGAGGC,-2.95 ± 0.16,-2.79 ± 0.3
GGCCAGCAAUAUUACGUGAA,-1.67 ± 0.066,-0.271 ± 0.077
UUGAAGCAAUAUUACGCAUC,-3.54 ± 0.33,
AAUGAGCAAUAUUACGUCAU,-2.26 ± 0.2,-1.02 ± 0.18
AUCCAGCAAUAUUACGUGUG,-1.79 ± 0.057,-0.983 ± 0.06
CGGGAGCAAUAUUACGUUGG,-3.83 ± 0.22,-2.52 ± 0.2
CCUCAGCAAUAUUACGGGAG,-3.4 ± 0.14,-2.42 ± 0.15
GCCUAGCAAUAUUACGGUGG,-4.34 ± 0.27,-2.86 ± 0.22
CUAGAGCAAUAUUACGGUGU,-4.1 ± 0.19,-2.92 ± 0.27
UGGGAGCAAUAUUACGCAUG,-3.28 ± 0.35,-0.201 ± 0.22
ACAAAGCAAUAUUACGGCAU,-0.565 ± 0.046,0.328 ± 0.058
GCAAAGCAAUAUUACGUUUU,-2.95 ± 0.11,-3 ± 0.18
ACGGAGCAAUAUUACGCUCG,-1.67 ± 0.14,-1.01 ± 0.16
CCUUAGCAAUAUUACGACUG,-2.26 ± 0.12,-0.308 ± 0.096
AACUAGCAAUAUUACGUCAU,-2.91 ± 0.13,-1.21 ± 0.12
GGUCAGCAAUAUUACGGUUC,0.308 ± 0.096,-0.214 ± 0.1

Sequence,self-splicing fitness (ln) (30 °C),self-splicing fitness (ln) (37 °C)
GCAAAGCAAUAUUACGCAGA,,-2.76 ± 0.3
AUUAAGCAAUAUUACGACGA,-0.668 ± 0.11,0.398 ± 0.13
UACUAGCAAUAUUACGCAGC,-2.49 ± 0.39,-2.08 ± 0.39
CCACAGCAAUAUUACGGGAC,-3.78 ± 0.33,-2.26 ± 0.2
GAAUAGCAAUAUUACGAAGG,-2.77 ± 0.27,
CGGUAGCAAUAUUACGCGAG,-3.58 ± 0.31,-2.36 ± 0.4
AACUAGCAAUAUUACGUCCA,-0.578 ± 0.094,-0.0353 ± 0.11
GCAGAGCAAUAUUACGAUUG,-4.02 ± 0.28,-2.95 ± 0.23
GAGUAGCAAUAUUACGCGAA,,-0.658 ± 0.37
AAGUAGCAAUAUUACGACCU,0.0875 ± 0.13,-0.703 ± 0.17
AUUGAGCAAUAUUACGCGAA,-3.61 ± 0.37,-1.28 ± 0.26
CUCGAGCAAUAUUACGUCUG,-2.84 ± 0.19,-1.2 ± 0.18
UGUUAGCAAUAUUACGUCAG,-1.61 ± 0.15,-0.486 ± 0.2
AUUCAGCAAUAUUACGGUAG,-3.49 ± 0.17,-2.87 ± 0.2
CUGUAGCAAUAUUACGCGCA,-2.23 ± 0.39,-2.52 ± 0.41
GGUAAGCAAUAUUACGAUCG,-0.894 ± 0.1,0.451 ± 0.17
GUUAAGCAAUAUUACGCAAC,,-0.0162 ± 0.34
GUCCAGCAAUAUUACGCUAG,-1.18 ± 0.076,-0.908 ± 0.1
ACUUAGCAAUAUUACGUUGU,-2.9 ± 0.15,-2.12 ± 0.15
ACUGAGCAAUAUUACGGCGA,-1.87 ± 0.099,-1.19 ± 0.11
GAAUAGCAAUAUUACGGUUA,-0.656 ± 0.11,-0.631 ± 0.091
UAAUAGCAAUAUUACGGGGA,-1.91 ± 0.15,-2.65 ± 0.34
AUCCAGCAAUAUUACGGACC,-1.71 ± 0.13,0.282 ± 0.13
UAGCAGCAAUAUUACGGCUU,-1.1 ± 0.11,0.255 ± 0.15
